Reference: publication PMC9779223

Key:
[1] = molecular target: Premixed complex of Tpm WT 1–133 and Tpm WT 134–284 (human) (UniProt P09493); experiment: ITC; MicroCal PEAQ-ITC, 25 °C; 30 mM HEPES-Na pH 7.3, 100 mM NaCl, 1 mM DTT; sample in the cell 30 to 60 µM, ligand in the syringe 200 to 700 µM; one set of binding sites
[2] = molecular target: Tropomyosin C-terminal fragment Tpm WT 134–284 (human) (UniProt P09493); experiment: as above
[3] = molecular target: Human Tpm1.1 (α-Tpm) K15N (human) (UniProt P09493); experiment: as above
Sequence of Human Tpm1.1 (α-Tpm) K15N (human) (P09493 other isoform, or with tags, fused parts or gaps K15N | K15N): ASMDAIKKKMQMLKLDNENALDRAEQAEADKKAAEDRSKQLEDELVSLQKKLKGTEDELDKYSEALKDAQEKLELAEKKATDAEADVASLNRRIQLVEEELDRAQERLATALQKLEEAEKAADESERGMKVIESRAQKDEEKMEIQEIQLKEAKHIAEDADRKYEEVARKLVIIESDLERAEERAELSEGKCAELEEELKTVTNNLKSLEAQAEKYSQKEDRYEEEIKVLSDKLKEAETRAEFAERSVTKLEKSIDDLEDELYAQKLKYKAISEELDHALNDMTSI

[4] = molecular target: Human Tpm1.1 (α-Tpm) WT (human) (UniProt P09493); experiment: as above
Sequence of Human Tpm1.1 (α-Tpm) WT (human) (P09493 other isoform, or with tags, fused parts or gaps): as the sequence (P09493 other isoform, or with tags, fused parts or gaps K15N | K15N) above, with N17K counted along it

[5] = molecular target: Human Tpm1.1 (α-Tpm) I284V (human) (UniProt P09493); experiment: as above
Sequence of Human Tpm1.1 (α-Tpm) I284V (human) (P09493 other isoform, or with tags, fused parts or gaps I284V | I284V): as the sequence (P09493 other isoform, or with tags, fused parts or gaps K15N | K15N) above, with N17K, I286V counted along it

[6] = molecular target: Human Tpm1.1 (α-Tpm) M281T (human) (UniProt P09493); experiment: as above
Sequence of Human Tpm1.1 (α-Tpm) M281T (human) (P09493 other isoform, or with tags, fused parts or gaps M281T | M281T): as the sequence (P09493 other isoform, or with tags, fused parts or gaps K15N | K15N) above, with N17K, M283T counted along it

[7] = molecular target: Human Tpm1.1 (α-Tpm) A277V (human) (UniProt P09493); experiment: as above
Sequence of Human Tpm1.1 (α-Tpm) A277V (human) (P09493 other isoform, or with tags, fused parts or gaps A277V | A277V): as the sequence (P09493 other isoform, or with tags, fused parts or gaps K15N | K15N) above, with N17K, A279V counted along it

[8] = molecular target: Human Tpm1.1 (α-Tpm) M8R (human) (UniProt P09493); experiment: as above
Sequence of Human Tpm1.1 (α-Tpm) M8R (human) (P09493 other isoform, or with tags, fused parts or gaps M8R): as the sequence (P09493 other isoform, or with tags, fused parts or gaps K15N | K15N) above, with M10R, N17K counted along it

[9] = molecular target: Premixed complex of TnT1 and Tpm WT 134–284 (human) (UniProt P09493); experiment: as above
P09493 [10] = experiment: viscosity measurement; falling ball microviscometer, 20 °C; Tpm 1.0 mg/mL (15 µM), without TnT1; 30 mM HEPES-Na pH 7.3, 100 mM NaCl, 4 mM DTT; excess viscosity over buffer as read-out of the end-to-end overlap junction of Tpm dimers; details: other: viscosity measurement
P09493 [11] = experiment: viscosity measurement; falling ball microviscometer, 20 °C; Tpm 1.0 mg/mL (15 µM) with TnT1 at molar ratio 1/1; 30 mM HEPES-Na pH 7.3, 100 mM NaCl, 4 mM DTT; excess viscosity over buffer; details: other: viscosity measurement

Sequence of Tropomyosin C-terminal fragment Tpm WT 134–284 (human) (P09493 134-284): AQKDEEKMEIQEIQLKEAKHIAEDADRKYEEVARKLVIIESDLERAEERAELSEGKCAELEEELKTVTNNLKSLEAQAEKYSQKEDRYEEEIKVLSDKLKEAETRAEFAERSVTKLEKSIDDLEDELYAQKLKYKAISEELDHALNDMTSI
Sequence of Premixed complex of Tpm WT 1–133 and Tpm WT 134–284 (human) (P09493 other isoform, or with tags, fused parts or gaps, chain 1 of 2): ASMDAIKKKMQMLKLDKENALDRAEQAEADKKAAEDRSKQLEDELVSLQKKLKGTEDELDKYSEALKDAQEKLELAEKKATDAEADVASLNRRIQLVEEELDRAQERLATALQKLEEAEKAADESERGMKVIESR
Sequence of Premixed complex of Tpm WT 1–133 and Tpm WT 134–284 (human) (P09493 134-284, chain 2 of 2): as the sequence (P09493 134-284) above

Human adult cardiac troponin T fragment TnT1 (TnT1–158) (domain or fragment)
Kd [1]: 900 nM | dH [1]: -7.7 kcal/mol | stoichiometry N [1]: 0.69 | Kd [2]: 1900 nM | dH [2]: 2.1 kcal/mol | stoichiometry N [2]: 1.06 | Kd [3]: 1300 nM | dH [3]: -12.1 kcal/mol | stoichiometry N [3]: 1.05 | Kd [4]: 910 nM | dH [4]: -9.69 kcal/mol | stoichiometry N [4]: 0.629 | Kd [5]: 1890 nM | dH [5]: -14.4 kcal/mol | stoichiometry N [5]: 0.775 | Kd [6]: 1520 nM | dH [6]: -8.83 kcal/mol | stoichiometry N [6]: 0.857 | Kd [7]: 2510 nM | dH [7]: -10.6 kcal/mol | stoichiometry N [7]: 1.03 | Kd [8]: 1900 nM | dH [8]: 2.51 kcal/mol | stoichiometry N [8]: 1.15

Tropomyosin N-terminal fragment Tpm WT 1–133 (from UniProt P09493 1-133) (domain or fragment)
Kd [9]: 1700 nM | dH [9]: -6.5 kcal/mol | stoichiometry N [9]: 1.07

Human Tpm1.1 (α-Tpm) WT
excess viscosity (P09493 [10]): 0.125 mPa·s | excess viscosity (P09493 [11]): 0.992 ± 0.001 mPa·s
